Assay results: PMC4329988

Biological target: phosphatidyl inositol 5-phosphate 4-kinase 2β subunit (PI5P4K2β), C-terminal 3xFLAG and two 6xHis tags (chicken (endogenous in DT40))
Experiment: affinity purification with mass spectrometry; SILAC-iPAC: lysates of JPR3 cells (tagged PI5P4K2β) and tag-less wild-type DT40 cells, differentially SILAC labelled (K6R6 or K0R0, reciprocal labellings), mixed 1:1; captured in parallel on EZview ANTI-FLAG M2 Affinity Gel and TALON Metal Affinity Resin for 1 h; lysis buffer 1x PBS pH 7.4, 1% Triton X-100; eluted with 3xFLAG peptide or 150 mM imidazole; LC-MS/MS, MaxQuant ratios

B1: phosphatidyl inositol 5-phosphate 4-kinase 2α subunit (PI5P4K2α) (natural protein)
chain: MAAPGTVASVMASKTKTKKKHFVVQKVKLFRASDPLLSVLMWGVNHSINELSHVQIPVMLMPDDFKAYSKIKVDNHLFNKENMPSHFKFKEYCPMVFRNLRERFGIDDQDFQNSLTRSAPLANDSQARSGARFHTSYDKRYIIKTITSEDVAEMHNILKKYHQFIVECHGNTLLPQFLGMYRLTVDGVEIYMIVTRNVFSHRLSVYRKYDLKGSTVAREASDKEKAKELPTFKDNDFINDGQKIHIDENNKRMFLEKLKKDVEFLAQLKLMDYSLLVGIHDVERAEQEEVECEENDGEDEGESDGTHPIGTPPDSPGNTLNSSLPLAPGEFDPAIDVYGIKSHESAPRKEVYFMAIIDILTHYDAKKKAAHAAKTVKHGAGAEISTVNPEQYSKRFLDFIANILT
ratio of PI5P4K2β:PI5P4K2α in the pull-down: 1.28
